Source: patent US20220324993A1 (EXCELMAB, published 2022)

What was measured:
[1] = biological target: T1, CD20 on Raji cells (CD20+/CD3-) (human, UniProt P11836 1-297); test: cell-based or functional assay
T1 sequence (looked up): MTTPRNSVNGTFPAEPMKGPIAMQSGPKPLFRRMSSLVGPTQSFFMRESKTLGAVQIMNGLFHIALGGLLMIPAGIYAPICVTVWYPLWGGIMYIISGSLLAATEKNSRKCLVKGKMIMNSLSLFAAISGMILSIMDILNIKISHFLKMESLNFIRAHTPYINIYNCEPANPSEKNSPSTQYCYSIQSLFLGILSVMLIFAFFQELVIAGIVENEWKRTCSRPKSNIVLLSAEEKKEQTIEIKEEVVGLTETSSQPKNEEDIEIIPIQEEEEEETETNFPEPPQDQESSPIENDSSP

[2] = biological target: T2, CD3 antigen: 1:1 mixture of human CD3 e protein and human CD3 d protein (Sino Biological Inc.) (human, UniProt P07766 23-126; P04234 22-105); test: ELISA, CD3 e/d mixture coated, anti-human IgG-HRP detection
T2 construct: Bought recombinant proteins, mixed 1:1 and coated on the ELISA plate; also called antigen CD3
T2 sequence (P07766 23-126 limits assumed, chain 1 of 2): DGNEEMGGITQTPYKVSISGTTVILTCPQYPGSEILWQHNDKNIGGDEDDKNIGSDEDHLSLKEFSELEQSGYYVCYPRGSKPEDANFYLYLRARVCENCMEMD
T2 sequence (P04234 22-105 limits assumed, chain 2 of 2): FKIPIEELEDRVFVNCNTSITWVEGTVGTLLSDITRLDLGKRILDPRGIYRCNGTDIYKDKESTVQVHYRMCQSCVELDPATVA
Method: 4) Addition of Samples: the bispecific antibody sample was diluted with PBS to 10 μg/ml and then subjected to a 4-fold gradient dilution at a total of eight concentrations. The diluted samples were added at 100 μL/well, and two replicate wells were used for each antibody concentration. The reaction wells were sealed with a plate sealing film and incubated at room temperature for 1.5 hours. The plate was washed 5 times with 0.05% PBST.
5) Addition of Secondary Antibody: HRP-labeled Goat Anti-Human IgG (H+L) (purchased from Proteintech company, product catalog No. SA00001-17) was diluted with PBS at a ratio of 1:2000 and added in a volume of 100 μL to each well. The reaction wells were sealed with a plate sealing film and incubated at room temperature for 1 hour. The plate was washed 5 times with 0.05% PBST.
7) Stopping: 50 μL of a stop solution (1 M HCl) was added to each well to stop the chromogenic reaction. After 3 min, the OD value of the reaction solution in each well was read at 450 nm on a microplate reader.

Row | Binder | ADCC activity to kill target tumor cells (Raji and Daudi cells), EC50 [1] [ng/mL] | killing of Raji cells by hPBMCs (LDH release), EC50 [1] [ng/mL] | EC50 [2] [ng/mL]
1 | CD20×CD3 BsAb V1 (bispecific antibody, human IgG1, kappa, L234A L235A, Four-chain IgG-like bispecific antibody with a heterodimeric Fc; The anti-CD20 arm is derived from Ofatumumab; the anti-CD3 arm is a humanized murine antibody without the N106T mutation; Expressed in HEK293 cells behind an IL-2 signal peptide supplied by the plasmid; also called CD20×CD3 bispecific antibody V1) heavy 1: EVQLVESGGGLVQPGRSLRLSCAASGFTFNDYAMHWVRQAPGKGLEWVSTISWNSGSIGYADSVKGRFTISRDNAKKSLYLQMNSLRAEDTALYYCAKDIQYGNYYYGMDVWGQGTTVTVSSASTKGPSVFPCAPSSKSTSGGTAALGCLVKDYFPEPVTVSWNSGALTSGVHTFPAVLQSSGLYSLSSVVTVPSSSLGTQTYICNVNHKPSNTKVDKKVEPKSSDKTHTCPPCPAPEAAGGPSVFLFPPKPKDTLMISRTPEVTCVVVDVSHEDPEVKFNWYVDGVEVHNAKTKPREEQYNSTYRVVSVLTVLHQDWLNGKEYKCKVSNKALPAPIEKTISKAKGQPREPQVYTLPPSREEMTKNQVSLTCLVKGFYPSDIAVEWESNGQPENNYKTDDDVLDSDGSFFLYSKLTVDKSRWQQGNVFSCSVMHEALHNHYTQKSLSLSPGK light 1: not shown heavy 2: EVQLVESGGGLVQPGGSLKLSCAASGFTFNTYAMNWVRQAPGKGLEWVARIRSKYNNYATYYADSVKDRFTISRDDSKNTAYLQMNNLKTEDTAMYYCVRHGNFGNSYVSWFAYWGQGTLVTVSSASTKGPSVFPLAPSSKSTSGGTAALGCLVKDYFPEPVTVSWNSGALTSGVHTFPAVLQSSGLYSLSSVVTVPSSSLGTQTYICNVNHKPSNTKVDKKVEPKSCDKTHTCPPCPAPEAAGGPSVFLFPPKPKDTLMISRTPEVTCVVVDVSHEDPEVKFNWYVDGVEVHNAKTKPREEQYNSTYRVVSVLTVLHQDWLNGKEYKCKVSNKALPAPIEKTISKAKGQPREPQVYTLPPSRDELTKNQVSLTCLVKGFYPSDIAVEWESNGQPENNYKTTKKKLDSDGSFFLYSKLTVDKSRWQQGNVFSCSVMHEALHNHYTQKSLSLSPGK light 2: DIQMTQEPSLTTSPGGTVTLTCRSSTGAVTTSNYANWVQEKPGQAPRGLIGGTNKRAPGTPARFSGSLIGGKAALTITGVQPEDEAIYFCALWYSNLWVFGGGTKLEIKRTVAAPSVFIFPPSDEQLKSGTASVVCLLNNFYPREAKVQWKVDNALQSGNSQESVTEQDSKDSTYSLSSTLTLSKADYEKHKVYACEVTHQGLSSPVTKSFNRGEC | 0.2 | 0.21 | 818
2 | CD20×CD3 BsAb V2 (bispecific antibody, human IgG1, kappa, L234A L235A, also called CD20×CD3 bispecific antibody V2) heavy 1: EVQLVESGGGLVQPGRSLRLSCAASGFTFNDYAMHWVRQAPGKGLEWVSTISWNSGSIGYADSVKGRFTISRDNAKKSLYLQMNSLRAEDTALYYCAKDIQYGNYYYGMDVWGQGTTVTVSSASTKGPSVFPCAPSSKSTSGGTAALGCLVKDYFPEPVTVSWNSGALTSGVHTFPAVLQSSGLYSLSSVVTVPSSSLGTQTYICNVNHKPSNTKVDKKVEPKSSDKTHTCPPCPAPEAAGGPSVFLFPPKPKDTLMISRTPEVTCVVVDVSHEDPEVKFNWYVDGVEVHNAKTKPREEQYNSTYRVVSVLTVLHQDWLNGKEYKCKVSNKALPAPIEKTISKAKGQPREPQVYTLPPSREEMTKNQVSLTCLVKGFYPSDIAVEWESNGQPENNYKTDDDVLDSDGSFFLYSKLTVDKSRWQQGNVFSCSVMHEALHNHYTQKSLSLSPGK light 1: not shown heavy 2: EVQLVESGGGLVQPGGSLKLSCAASGFTFNTYAMNWVRQAPGKGLEWVARIRSKYNNYATYYADSVKDRFTISRDDSKNTAYLQMNNLKTEDTAMYYCVRHGNFGTSYVSWFAYWGQGTLVTVSSASTKGPSVFPLAPSSKSTSGGTAALGCLVKDYFPEPVTVSWNSGALTSGVHTFPAVLQSSGLYSLSSVVTVPSSSLGTQTYICNVNHKPSNTKVDKKVEPKSCDKTHTCPPCPAPEAAGGPSVFLFPPKPKDTLMISRTPEVTCVVVDVSHEDPEVKFNWYVDGVEVHNAKTKPREEQYNSTYRVVSVLTVLHQDWLNGKEYKCKVSNKALPAPIEKTISKAKGQPREPQVYTLPPSRDELTKNQVSLTCLVKGFYPSDIAVEWESNGQPENNYKTTKKKLDSDGSFFLYSKLTVDKSRWQQGNVFSCSVMHEALHNHYTQKSLSLSPGK light 2: DIQMTQEPSLTTSPGGTVTLTCRSSTGAVTTSNYANWVQEKPGQAPRGLIGGTNKRAPGTPARFSGSLIGGKAALTITGVQPEDEAIYFCALWYSNLWVFGGGTKLEIKRTVAAPSVFIFPPSDEQLKSGTASVVCLLNNFYPREAKVQWKVDNALQSGNSQESVTEQDSKDSTYSLSSTLTLSKADYEKHKVYACEVTHQGLSSPVTKSFNRGEC | 0.2 | 0.24 | 2100
